{"source": "IntAct's records for PubMed 28712572", "parents": {"B1": {"name": "Gamma-aminobutyric acid receptor-associated protein (Homo sapiens), O95166 (parent)", "chain": "MKFVYKEEHPFEKRRSEGEKIRKKYPDRVPVIVEKAPKARIGDLDKKKYLVPSDLTVGQFYFLIRKRIHLRAEDALFFFVNNVIPPTSATMGQLYQEHHEEDFFLYIAYSDESVYGL"}}, "data": [{"variants_of": "B1", "details": "with pcm1_human PCM1, Q15154", "values": [{"variant": "G116A", "effect of a mutation on the interaction": "with no effect"}]}]}
